In patent US10472401B2, “Peptides and combination of peptides for use in immunotherapy against ovarian cancer and other cancers” (immatics biotechnologies GmbH, priority 2015, dated 2019) one finds Peptide exchange data, which are given here for 53 substances.

This assay has as its target HLA-A*02:01 (Homo sapiens, UniProt P04439, D140Y/D185E/D98H/E176V/E277Q/G131W/G231S/I119V/I121R/I166T/I218V/L300P/L318F/N151K/N90K/P208A/P217A/Q86G/Q94H/R138H/R169H/T345S). Briefly: MHC binding assay (UV-ligand exchange, ELISA of stabilized MHC complexes). The settings on record: MHC class I binding score; binding to HLA-A*02:01 ranged by peptide exchange yield (UV-ligand exchange, ELISA). The gist of the method:
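Binding scored as exchange yield, detected via β2m of stabilized complexes in an HRP/TMB ELISA read at 450 nm after streptavidin capture of 100-fold diluted monomers for 1 h at 37 °C. Complexes came from UV irradiation cleaving a photolabile peptide, exchanged for the candidate.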
In the case of “337 (HLLSELEAAPYL; listed as Homo sapiens) [compound 337]”, the Peptide exchange entry is listed as “″++++″ (≥75% = ++++)”. As for “339 (GLWEIENNPTVKA; listed as Homo sapiens) [compound 339]”, the Peptide exchange entry is given as “″++++″ (≥75% = ++++)”. Regarding “340 (ALLSMTFPL; listed as Homo sapiens) [compound 340]”, the Peptide exchange entry was “″++++″ (≥75% = ++++)”. As for “341 (SQIALNEKLVNL; listed as Homo sapiens) [compound 341]”, the Peptide exchange result was “″+++″ (≥50% = +++)”. With “342 (HIYDKVMTV; listed as Homo sapiens) [compound 342]”, the Peptide exchange entry was “″+++″ (≥50% = +++)”. In the case of “343 (SLLEVNEESTV; listed as Homo sapiens) [compound 343]” it was “″+++″ (≥50% = +++)”.

For “344 (YLQDQHLLLTV; listed as Homo sapiens) [compound 344]”, the Peptide exchange entry was “″+++″ (≥50% = +++)”.

As to “345 (VIWKALIHL; listed as Homo sapiens) [compound 345]”, the Peptide exchange result is on record as “″+++″ (≥50% = +++)”. Consider “346 (LLDSKVPSV; listed as Homo sapiens) [compound 346]”, for which the Peptide exchange entry is “″+++″ (≥50% = +++)”. For “347 (SLFKHDPAAWEA; listed as Homo sapiens) [compound 347]”, the Peptide exchange result was “″++++″ (≥75% = ++++)”.

As for “348 (ILLDVKTRL; listed as Homo sapiens) [compound 348]”, the Peptide exchange entry is reported as “″++++″ (≥75% = ++++)”. In the case of “349 (SLTEYLQNV; listed as Homo sapiens) [compound 349]”, the Peptide exchange result is on record as “″++++″ (≥75% = ++++)”. Regarding “350 (ALLDVTHSELTV; listed as Homo sapiens) [compound 350]”, the Peptide exchange result is reported as “″+++″ (≥50% = +++)”. For “351 (SLIPNLRNV; listed as Homo sapiens) [compound 351]”, the Peptide exchange result is “″+++″ (≥50% = +++)”. Turning to “352 (SLLELLHIYV; listed as Homo sapiens) [compound 352]”, the Peptide exchange result was “″+++″ (≥50% = +++)”. The same measure for “353 (YLFEMDSSL; listed as Homo sapiens) [compound 353]”: “″++″ (≥20% = ++)”. The same measure for “354 (LILEGVDTV; listed as Homo sapiens) [compound 354]”: “″++″ (≥20% = ++)”; for “355 (SIQQSIERLLV; listed as Homo sapiens) [compound 355]”: “″++″ (≥20% = ++)”. In the case of “356 (KLLGKLPEL; listed as Homo sapiens) [compound 356]” it was “″+++″ (≥50% = +++)”; in that of “357 (SMHDLVLQV; listed as Homo sapiens) [compound 357]”, “″+++″ (≥50% = +++)”.

For the substance “358 (ALDEYTSEL; listed as Homo sapiens) [compound 358]”, the Peptide exchange result is “″++++″ (≥75% = ++++)”. For “359 (YLLPESVDL; listed as Homo sapiens) [compound 359]”, the Peptide exchange entry is on record as “″+++″ (≥50% = +++)”. Consider “361 (ALYELEGTTV; listed as Homo sapiens) [compound 361]”, for which the Peptide exchange entry is “″+++″ (≥50% = +++)”. The same measure for “362 (TLYGLSVLL; listed as Homo sapiens) [compound 362]”: “″+++″ (≥50% = +++)”; for “363 (KVLDVSDLESV; listed as Homo sapiens) [compound 363]”: “″++″ (≥20% = ++)”.

Regarding “364 (LLQNEQFEL; listed as Homo sapiens) [compound 364]”, the Peptide exchange entry is recorded as “″+++″ (≥50% = +++)”.

With “365 (YVIDQGETDVYV; listed as Homo sapiens) [compound 365]”, the Peptide exchange entry is given as “″+++″ (≥50% = +++)”. For the substance “366 (RLLDMGETDLML; listed as Homo sapiens) [compound 366]”, the Peptide exchange result is on record as “″+++″ (≥50% = +++)”.

In the case of “367 (SLQNHNHQL; listed as Homo sapiens) [compound 367]”, the Peptide exchange result is listed as “″+++″ (≥50% = +++)”. Consider “369 (GLFPEHLIDV; listed as Homo sapiens) [compound 369]”, for which the Peptide exchange entry is recorded as “″+++″ (≥50% = +++)”. As for “370 (SLLQDLVSV; listed as Homo sapiens) [compound 370]”, the Peptide exchange result is reported as “″+++″ (≥50% = +++)”. In the case of “371 (FLQAHLHTA; listed as Homo sapiens) [compound 371]”, the Peptide exchange result is reported as “″++++″ (≥75% = ++++)”.

Turning to “372 (TMLLNIPLV; listed as Homo sapiens) [compound 372]”, the Peptide exchange entry is listed as “″++″ (≥20% = ++)”. “373 (SLLEDKGLAEV; listed as Homo sapiens) [compound 373]”: the Peptide exchange result was “″++″ (≥20% = ++)”.

Take “374 (FLLQQHLISA; listed as Homo sapiens) [compound 374]”: the Peptide exchange entry is reported as “″++″ (≥20% = ++)”. For “375 (SLTETIEGV; listed as Homo sapiens) [compound 375]”, the Peptide exchange result was “″++″ (≥20% = ++)”. For the substance “376 (AMFESSQNVLL; listed as Homo sapiens) [compound 376]”, the Peptide exchange result was “″++″ (≥20% = ++)”.

Take “377 (FLLDSSASV; listed as Homo sapiens) [compound 377]”: the Peptide exchange result is recorded as “″++″ (≥20% = ++)”. The same measure for “378 (ALGYFVPYV; listed as Homo sapiens) [compound 378]”: “″+++″ (≥50% = +++)”; for “379 (IMEGTLTRV; listed as Homo sapiens) [compound 379]”: “″++″ (≥20% = ++)”; for “380 (TLIEDEIATI; listed as Homo sapiens) [compound 380]”: “″++″ (≥20% = ++)”. “381 (FIDEAYVEV; listed as Homo sapiens) [compound 381]”: the Peptide exchange entry was “″++″ (≥20% = ++)”. The same measure for “382 (ALQNYIKEA; listed as Homo sapiens) [compound 382]”: “″++″ (≥20% = ++)”; for “383 (ALLELENSVTL; listed as Homo sapiens) [compound 383]”: “″+++″ (≥50% = +++)”; for “385 (SLLEQGLVEA; listed as Homo sapiens) [compound 385]”: “″++″ (≥20% = ++)”. Consider “386 (ILFRYPLTI; listed as Homo sapiens) [compound 386]”, for which the Peptide exchange result was “″+++″ (≥50% = +++)”.

In the case of “387 (ALFQATAEV; listed as Homo sapiens) [compound 387]”, the Peptide exchange result is “″++++″ (≥75% = ++++)”. On to “388 (SLTIDGIRYV; listed as Homo sapiens) [compound 388]”, for which the Peptide exchange entry is reported as “″+++″ (≥50% = +++)”. The same measure for “389 (LLADVTHLL; listed as Homo sapiens) [compound 389]”: “″++″ (≥20% = ++)”; for “390 (ALFMKQIYL; listed as Homo sapiens) [compound 390]”: “″+++″ (≥50% = +++)”; for “391 (YVYPQRLNFV; listed as Homo sapiens) [compound 391]”: “″+++″ (≥50% = +++)”.

For “392 (ALLHPQGFEV; listed as Homo sapiens) [compound 392]”, the Peptide exchange entry is recorded as “″++″ (≥20% = ++)”. For “393 (GLLDTQTSQVLTA; listed as Homo sapiens) [compound 393]”, the Peptide exchange entry was “″++″ (≥20% = ++)”.
